Measured values as given in patent US20240287189A1 (SPARX BIOSCIENCE, published 2024).

Key:
[1] = target: PDL1 on PDL1 aAPC/CHOK1 cells (UniProt Q9NZQ7 19-290, limits assumed); test: cell-based or functional assay
[2] = target: T1, PDL1 expressed on MDA MB-231 human breast cancer cells (human, UniProt Q9NZQ7 19-290); test: flow cytometry on MDA MB-231 cells, anti-human IgG Fc secondary antibody
T1 construct: whole, on cells; also called MDA MB-231 cells

[3] = target: T2, human PD-L1 (recombinant protein, coated and in solution in the phage ELISA) (human, UniProt Q9NZQ7 19-239); test: competitive phage ELISA, ratio to 12A4 parent clone
T2 construct: It is probably the same Met1-Thr239 extracellular segment that was used for selection; also called CD274; B7 homolog 1

[4] = target: T2, human PD-L1 (recombinant protein, …); test: competitive phage ELISA, Fab on phage, soluble PD-L1 against coated PD-L1

B1: anti-PDL1 monoclonal antibody 12A4bad (antibody, V domains shown)
VH: QVQLVQSGAEVKKPGSSVKVSCKTSGDTFSTYAISWVRQAPGQGLEWMGGIIPLFGKAHYAQKFQGRVTITADESTSTAYMELSSLRSEDTAVYFCARKFHFVRGSPFGMDVWGQGTTVTVSS
VL: EIVLTQSPATLSLSPGERATLSCRASQSVSSYLAWYQQKPGQAPRLLIYDASNRAPGIPARFSGSGSGTDFTLTISSLEPEDFAVYYCQQRSNWPTFGQGTKVEIK
notes: also called PDL1 antibody 12A4bad
With B1 the “EC50, luminescent signal in PDL1/PD1 blockage bioassay” value [1] was 0.344 nM and the Kd [2] was 0.0778 nM.

B2: 12A4bd Fab displayed on phage (Fab, V domains shown)
VH: QVQLVQSGAEVKKPGSSVKVSCKTSGDTFSTYAISWVRQAPGQGLEWMGGIIPLFGKAHYAQKFQGRVTITADESTSTAYMELSSLRSEDTAVYFCARKFHFVRGSPFGMDVWGQGTTVTVSS
VL: not shown
B2 was tested, and the “Improvement from 12A4 Parent Clone” value [3] was 6.3 fold and the Kd [4] was 1.8 nM.

B3: 12A4a Fab displayed on phage (Fab, V domains shown)
VH: QVQLVQSGAEVKKPGSSVKVSCKTSGDTFSTYAISWVRQAPGQGLEWMGGIIPIFGKAHYAQKFQGRVTITADESTSTAYMELSSLRSEDTAVYFCARKFHFVSGSPFGMDVWGQGTTVTVSS
VL: EIVLTQSPATLSLSPGERATLSCRASQSVSSYLAWYQQKPGQAPRLLIYDASNRAPGIPARFSGSGSGTDFTLTISSLEPEDFAVYYCQQRSNWPTFGQGTKVEIK
B3 was tested, and the “Improvement from 12A4 Parent Clone” value [3] was 1.3 fold and the Kd [4] was 8.3 nM.

B4: 12A4bad Fab displayed on phage (Fab, V domains shown)
VH: QVQLVQSGAEVKKPGSSVKVSCKTSGDTFSTYAISWVRQAPGQGLEWMGGIIPLFGKAHYAQKFQGRVTITADESTSTAYMELSSLRSEDTAVYFCARKFHFVRGSPFGMDVWGQGTTVTVSS
VL: EIVLTQSPATLSLSPGERATLSCRASQSVSSYLAWYQQKPGQAPRLLIYDASNRAPGIPARFSGSGSGTDFTLTISSLEPEDFAVYYCQQRSNWPTFGQGTKVEIK
With B4 the “Improvement from 12A4 Parent Clone” value [3] was 7.5 fold and the Kd [4] was 1.5 nM.

B5: 12A4ad Fab displayed on phage (Fab, V domains shown)
VH: QVQLVQSGAEVKKPGSSVKVSCKTSGDTFSTYAISWVRQAPGQGLEWMGGIIPLFGKAHYAQKFQGRVTITADESTSTAYMELSSLRSEDTAVYFCARKFHFVSGSPFGMDVWGQGTTVTVSS
VL: EIVLTQSPATLSLSPGERATLSCRASQSVSSYLAWYQQKPGQAPRLLIYDASNRAPGIPARFSGSGSGTDFTLTISSLEPEDFAVYYCQQRSNWPTFGQGTKVEIK
B5 was tested, and the Kd [4] was 5 nM.

B6: 12A4b Fab displayed on phage (Fab, V domains shown)
VH: QVQLVQSGAEVKKPGSSVKVSCKTSGDTFSTYAISWVRQAPGQGLEWMGGIIPIFGKAHYAQKFQGRVTITADESTSTAYMELSSLRSEDTAVYFCARKFHFVRGSPFGMDVWGQGTTVTVSS
VL: not shown
With B6 the “Improvement from 12A4 Parent Clone” value [3] was 3.3 fold.
